According to patent publication US6013258A, “Immunogenic peptides from the HPV E7 protein” (priority 1997, dated 2000):

Biological target: T1, recombinant HLA-A2 (Homo sapiens, UniProt P04439, D140Y/D185E/D98H/E176V/E277Q/G131W/G231S/I119V/I121R/I166T/I218V/N151K/N90K/P208A/P217A/Q86G/Q94H/R138H/R169H)
T1 construct: made in house; host or cells: E. coli
Assay type: binding
Conditions: peptide-HLA-A2 complex, monitored by circular dichroism

A2.2: peptide derived from HPV strain 16 E7 protein, SEQ ID NO:17 (YMLDLQPET) [Peptide A2.2]
Tm (temperature at which 50% of the refolded complexes are melted): 52.5 degrees Celsius
